Experimental data: patent publication US20120021092A1

Columns and labels:
Experiment in all cases: cell-based or functional assay
[1] = biological target: Bacillus subtilis xylanase variant G13Y/T110A/Y113D/R122D/K154R/N159D/Q175L (modifications made to SEQ ID No. 1) (Bacillus subtilis) (UniProt P18429)
[2] = biological target: Bacillus subtilis xylanase variant G13Y/G34K/T110A/Y113D/R122D/Q175L (modifications made to SEQ ID No. 1) (Bacillus subtilis) (UniProt P18429)
[3] = biological target: Bacillus subtilis xylanase variant G13Y/K99Y/T104W/T110A/Y113D/R122F/K154R/N159D/Q175K (modifications made to SEQ ID No. 1) (Bacillus subtilis) (UniProt P18429)
[4] = biological target: Bacillus subtilis xylanase variant G13Y/I77Y/K99Y/T104W/T110A/Y113D/R122F/K154R/N159D/Q175L (modifications made to SEQ ID No. 1) (Bacillus subtilis) (UniProt P18429)
[5] = biological target: Bacillus subtilis xylanase variant D11F/R122D/T110A/Y113A (modifications made to SEQ ID No. 1) (Bacillus subtilis) (UniProt P18429)
[6] = biological target: Bacillus subtilis xylanase variant G13Y/I77L/K99Y/T104W/T110A/Y113D/R122F/K154R/N159D/Q175L (modifications made to SEQ ID No. 1) (Bacillus subtilis) (UniProt P18429)
[7] = biological target: Bacillus subtilis xylanase variant G13Y/Y113D/R122F/Q175L (modifications made to SEQ ID No. 1) (Bacillus subtilis) (UniProt P18429)
[8] = biological target: Bacillus subtilis xylanase variant G13Y/K99Y/T104W/T110A/Y113D/N114D/R122F/K154R/N159D/L175K (modifications made to SEQ ID No. 1) (Bacillus subtilis) (UniProt P18429)
[9] = biological target: Bacillus subtilis xylanase variant BS3 (wildtype with D11F/R122D mutations) (Bacillus subtilis) (UniProt P18429)
[10] = biological target: Bacillus subtilis xylanase variant G13Y/T110A/Y113D/R122D/S162E/Q175L (modifications made to SEQ ID No. 1) (Bacillus subtilis) (UniProt P18429)
[11] = biological target: Bacillus subtilis xylanase variant G13Y/K99Y/T104W/T110A/Y113D/N114Y/R122F/K154R/N159D/L175K (modifications made to SEQ ID No. 1) (Bacillus subtilis) (UniProt P18429)
[12] = biological target: Bacillus subtilis xylanase variant D11F/R122D/T110A (modifications made to SEQ ID No. 1) (Bacillus subtilis) (UniProt P18429)
[13] = biological target: Bacillus subtilis xylanase variant G13Y/K99Y/T104W/T110A/Y113D/I118V/R122F/K154R/N159D/Q175L (modifications made to SEQ ID No. 1) (Bacillus subtilis) (UniProt P18429)
[14] = biological target: Bacillus subtilis xylanase variant G13Y/K99Y/T104W/T110A/Y113D/R122F/K154R/N159D/Y166F/Q175L (modifications made to SEQ ID No. 1) (Bacillus subtilis) (UniProt P18429)
[15] = biological target: Bacillus subtilis xylanase variant G13Y/I77M/K99Y/T104W/T110A/Y113D/R122F/K154R/N159D/Q175L (modifications made to SEQ ID No. 1) (Bacillus subtilis) (UniProt P18429)
[16] = biological target: Bacillus subtilis xylanase variant G13Y/K99Y/T104W/Y113D/R122D/Q175L (modifications made to SEQ ID No. 1) (Bacillus subtilis) (UniProt P18429)
[17] = biological target: Bacillus subtilis xylanase variant G13Y/T110A/Y113D/R122F/Q175L (modifications made to SEQ ID No. 1) (Bacillus subtilis) (UniProt P18429)
[18] = biological target: Bacillus subtilis xylanase variant G13Y/K99Y/T104W/T110A/Y113D/N114D/R122F/K154R/N159D/Q175L (modifications made to SEQ ID No. 1) (Bacillus subtilis) (UniProt P18429)
[19] = biological target: Bacillus subtilis xylanase variant D11F/R122D/Q175E (modifications made to SEQ ID No. 1) (Bacillus subtilis) (UniProt P18429)
[20] = biological target: Bacillus subtilis xylanase variant G13Y/K99Y/T104W/T110A/Y113D/R122F/K154R/N159D/Q175L (modifications made to SEQ ID No. 1) (Bacillus subtilis) (UniProt P18429)
[21] = biological target: Bacillus subtilis xylanase variant G13F/Y113D/R122D/Q175L (modifications made to SEQ ID No. 1) (Bacillus subtilis) (UniProt P18429)
[22] = biological target: Bacillus subtilis xylanase variant D11F/R122D/Y113A (modifications made to SEQ ID No. 1) (Bacillus subtilis) (UniProt P18429)
[23] = biological target: Bacillus subtilis xylanase variant G13Y/T110A/Y113D/R122D/W164F/Q175L (modifications made to SEQ ID No. 1) (Bacillus subtilis) (UniProt P18429)
[24] = biological target: Bacillus subtilis XynA wildtype xylanase (SEQ ID No. 1), no modifications (Bacillus subtilis) (UniProt P18429)
[25] = biological target: Bacillus subtilis xylanase variant G13Y/K99Y/T104W/T110A/Y113D/N114Y/R122F/K154R/N159D/Q175L (modifications made to SEQ ID No. 1) (Bacillus subtilis) (UniProt P18429)
[26] = biological target: Bacillus subtilis xylanase variant G13Y/I15Y/Y113D/R122D/Q175L (modifications made to SEQ ID No. 1) (Bacillus subtilis) (UniProt P18429)
[27] = biological target: Bacillus subtilis xylanase variant D11F/R122D/Q175Y/S179Y (modifications made to SEQ ID No. 1) (Bacillus subtilis) (UniProt P18429)
[28] = biological target: Bacillus subtilis xylanase variant G13Y/I77V/K99Y/T104W/T110A/Y113D/R122F/K154R/N159D/Q175L (modifications made to SEQ ID No. 1) (Bacillus subtilis) (UniProt P18429)
[29] = biological target: Bacillus subtilis xylanase variant G12F/Y113D/R122D/Q175L (modifications made to SEQ ID No. 1) (Bacillus subtilis) (UniProt P18429)
[30] = biological target: Bacillus subtilis xylanase variant G13Y/V81I/K99Y/T104W/T110A/Y113D/R122F/K154R/N159D/Q175L (modifications made to SEQ ID No. 1) (Bacillus subtilis) (UniProt P18429)
[31] = biological target: Bacillus subtilis xylanase variant G13Y/K99Y/T104W/T110A/Y113D/N114F/R122F/K154R/N159D/Q175L (modifications made to SEQ ID No. 1) (Bacillus subtilis) (UniProt P18429)
[32] = biological target: Bacillus subtilis xylanase variant G13Y/T110A/Y113D/R122D/Q175L (modifications made to SEQ ID No. 1) (Bacillus subtilis) (UniProt P18429)
[33] = biological target: Bacillus subtilis xylanase variant G13Y/Y113D/R122D/Q175L (modifications made to SEQ ID No. 1) (Bacillus subtilis) (UniProt P18429)
[34] = biological target: Bacillus subtilis xylanase variant G13Y/I77S/K99Y/T104W/T110A/Y113D/R122F/K154R/N159D/Q175L (modifications made to SEQ ID No. 1) (Bacillus subtilis) (UniProt P18429)
[35] = biological target: Bacillus subtilis xylanase variant G13Y/T110A/Y113D/R122D/S162D/Q175L (modifications made to SEQ ID No. 1) (Bacillus subtilis) (UniProt P18429)

Sequence of crude xylanase inhibitor preparation from wheat (Triticum aestivum) flour, containing both TAXI and XIP (main, form in doubt): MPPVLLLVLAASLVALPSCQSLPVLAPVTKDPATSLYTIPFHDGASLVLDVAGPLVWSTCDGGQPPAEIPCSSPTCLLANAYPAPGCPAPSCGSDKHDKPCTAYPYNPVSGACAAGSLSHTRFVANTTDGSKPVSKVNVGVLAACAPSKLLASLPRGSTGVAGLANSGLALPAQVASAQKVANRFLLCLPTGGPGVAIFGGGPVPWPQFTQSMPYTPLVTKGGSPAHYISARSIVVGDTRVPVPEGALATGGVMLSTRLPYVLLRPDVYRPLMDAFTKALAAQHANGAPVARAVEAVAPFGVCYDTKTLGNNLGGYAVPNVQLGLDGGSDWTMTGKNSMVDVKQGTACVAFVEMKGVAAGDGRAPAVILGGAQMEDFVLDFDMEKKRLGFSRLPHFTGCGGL

## crude xylanase inhibitor preparation from wheat (Triticum aestivum) flour, containing both TAXI and XIP
[1]
  % Activity @ 50 XIU/ml (residual xylanase activity): 32%
[2]
  % Activity @ 50 XIU/ml (residual xylanase activity): 97%
[3]
  % Activity @ 50 XIU/ml (residual xylanase activity): 72%
[4]
  % Activity @ 50 XIU/ml (residual xylanase activity): 37%
[5]
  % Activity @ 5.6 XIU/ml (residual xylanase activity): 99%
[6]
  % Activity @ 50 XIU/ml (residual xylanase activity): 75%
[7]
  % Activity @ 50 XIU/ml (residual xylanase activity): 90%
[8]
  % Activity @ 50 XIU/ml (residual xylanase activity): 79%
[9]
  % Activity @ 5.6 XIU/ml (residual xylanase activity): 100%
  % Activity @ 33.5 XIU/ml (residual xylanase activity): 100%
  % Activity @ 50 XIU/ml (residual xylanase activity): 95%
[10]
  % Activity @ 50 XIU/ml (residual xylanase activity): 44%
[11]
  % Activity @ 50 XIU/ml (residual xylanase activity): 84%
[12]
  % Activity @ 5.6 XIU/ml (residual xylanase activity): 98%
  % Activity @ 33.5 XIU/ml (residual xylanase activity): 100%
[13]
  % Activity @ 50 XIU/ml (residual xylanase activity): 79%
[14]
  % Activity @ 50 XIU/ml (residual xylanase activity): 68%
[15]
  % Activity @ 50 XIU/ml (residual xylanase activity): 46%
[16]
  % Activity @ 33.5 XIU/ml (residual xylanase activity): 80%
[17]
  % Activity @ 50 XIU/ml (residual xylanase activity): 65%
[18]
  % Activity @ 50 XIU/ml (residual xylanase activity): 79%
[19]
  % Activity @ 5.6 XIU/ml (residual xylanase activity): 100%
[20]
  % Activity @ 50 XIU/ml (residual xylanase activity): 64%
[21]
  % Activity @ 5.6 XIU/ml (residual xylanase activity): 100%
  % Activity @ 33.5 XIU/ml (residual xylanase activity): 90%
[22]
  % Activity @ 5.6 XIU/ml (residual xylanase activity): 100%
[23]
  % Activity @ 50 XIU/ml (residual xylanase activity): 29%
[24]
  % Activity @ 5.6 XIU/ml (residual xylanase activity): 29%
[25]
  % Activity @ 50 XIU/ml (residual xylanase activity): 78%
[26]
  % Activity @ 33.5 XIU/ml (residual xylanase activity): 76%
[27]
  % Activity @ 5.6 XIU/ml (residual xylanase activity): 100%
[28]
  % Activity @ 50 XIU/ml (residual xylanase activity): 45%
[29]
  % Activity @ 5.6 XIU/ml (residual xylanase activity): 100%
[30]
  % Activity @ 50 XIU/ml (residual xylanase activity): 46%
[31]
  % Activity @ 50 XIU/ml (residual xylanase activity): 79%
[32]
  % Activity @ 33.5 XIU/ml (residual xylanase activity): 50%
[33]
  % Activity @ 33.5 XIU/ml (residual xylanase activity): 86%
[34]
  % Activity @ 50 XIU/ml (residual xylanase activity): 20%
[35]
  % Activity @ 50 XIU/ml (residual xylanase activity): 40%
